Experimental data from paper PMC5996148, “Data set on G4 DNA interactions with human proteins”.

T1: LOC153684 protein (FLJ42001 fis, clone SPLEN2029912) (human, UniProt Q6ZVW3 1-145)
T1 sequence: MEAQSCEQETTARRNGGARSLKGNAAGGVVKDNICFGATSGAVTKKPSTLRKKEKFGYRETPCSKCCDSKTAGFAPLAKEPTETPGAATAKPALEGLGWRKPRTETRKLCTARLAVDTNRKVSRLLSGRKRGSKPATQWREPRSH

T2: survival motor neuron domain containing 1 (human, UniProt O75940 1-238)
T2 sequence: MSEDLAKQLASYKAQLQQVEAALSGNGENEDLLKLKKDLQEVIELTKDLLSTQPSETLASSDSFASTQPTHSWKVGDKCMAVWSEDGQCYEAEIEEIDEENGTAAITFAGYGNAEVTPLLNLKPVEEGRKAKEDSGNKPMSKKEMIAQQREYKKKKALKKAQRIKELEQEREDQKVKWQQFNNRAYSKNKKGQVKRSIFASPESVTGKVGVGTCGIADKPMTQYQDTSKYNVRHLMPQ

T3: chromosome 1 open reading frame 63 (human, UniProt Q9BUV0 1-290)
T3 sequence: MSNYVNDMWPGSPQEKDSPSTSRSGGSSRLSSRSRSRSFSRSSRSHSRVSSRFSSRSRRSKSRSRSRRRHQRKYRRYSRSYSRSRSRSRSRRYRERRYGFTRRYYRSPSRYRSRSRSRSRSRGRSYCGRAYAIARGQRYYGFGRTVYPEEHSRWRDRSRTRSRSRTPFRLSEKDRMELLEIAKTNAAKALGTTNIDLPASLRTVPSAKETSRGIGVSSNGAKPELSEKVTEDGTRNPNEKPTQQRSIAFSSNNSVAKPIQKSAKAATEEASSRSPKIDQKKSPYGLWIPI

T4: ankyrin repeat and zinc finger domain containing 1 (human, UniProt Q9H8Y5 1-726)
T4 sequence: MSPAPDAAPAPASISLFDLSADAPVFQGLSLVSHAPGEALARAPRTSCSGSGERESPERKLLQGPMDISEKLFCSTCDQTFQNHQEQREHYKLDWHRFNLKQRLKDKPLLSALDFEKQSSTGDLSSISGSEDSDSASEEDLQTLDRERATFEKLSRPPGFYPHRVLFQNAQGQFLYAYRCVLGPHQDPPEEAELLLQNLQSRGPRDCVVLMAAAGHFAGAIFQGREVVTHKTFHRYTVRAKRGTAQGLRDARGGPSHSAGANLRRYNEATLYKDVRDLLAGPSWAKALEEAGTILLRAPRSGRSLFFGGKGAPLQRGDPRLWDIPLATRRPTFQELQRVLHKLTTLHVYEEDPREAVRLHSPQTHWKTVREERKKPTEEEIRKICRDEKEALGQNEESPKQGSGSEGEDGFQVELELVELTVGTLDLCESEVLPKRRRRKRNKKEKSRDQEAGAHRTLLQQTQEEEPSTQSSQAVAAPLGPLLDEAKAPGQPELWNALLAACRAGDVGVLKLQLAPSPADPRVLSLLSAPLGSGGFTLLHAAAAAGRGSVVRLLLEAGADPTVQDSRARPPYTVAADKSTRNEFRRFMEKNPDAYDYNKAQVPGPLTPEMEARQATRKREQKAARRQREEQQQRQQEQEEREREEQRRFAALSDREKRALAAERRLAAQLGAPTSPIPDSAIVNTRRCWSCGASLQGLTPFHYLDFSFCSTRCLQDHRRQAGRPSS

T5: additional sex combs like 1 (human, UniProt Q6P1M8 1-84)
T5 sequence: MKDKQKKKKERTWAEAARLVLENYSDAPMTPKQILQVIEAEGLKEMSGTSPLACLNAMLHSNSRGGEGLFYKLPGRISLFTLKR

T6: Peptidyl-tRNA hydrolase 2, mitochondrial (human, UniProt Q9Y3E5 1-179)
T6 sequence: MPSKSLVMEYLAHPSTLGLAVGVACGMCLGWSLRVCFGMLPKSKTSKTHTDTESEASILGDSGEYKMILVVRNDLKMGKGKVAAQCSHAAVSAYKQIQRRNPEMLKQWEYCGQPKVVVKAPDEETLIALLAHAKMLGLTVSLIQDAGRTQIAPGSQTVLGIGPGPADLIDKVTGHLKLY

T7: hypothetical protein HSPC111 (human, UniProt Q9Y3C1 1-178)
T7 sequence: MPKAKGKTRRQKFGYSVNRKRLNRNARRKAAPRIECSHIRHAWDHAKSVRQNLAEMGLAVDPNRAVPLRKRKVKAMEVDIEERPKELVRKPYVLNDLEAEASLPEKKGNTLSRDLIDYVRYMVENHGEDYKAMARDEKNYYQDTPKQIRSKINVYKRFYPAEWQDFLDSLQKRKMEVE


Key:
[1] = biological target: T8, GABA(A) receptor-associated protein (human, UniProt O95166 1-117); experiment: protein microarray; 2.5 uM ON; 4.86 at 25 uM; Microarray: 20 mM Tris pH 7.5, 5 mM MgCl2, 100 mM KCl, 0.1% Tween-20, A/T-rich ON blocker mix; EMSA: 20 mM Tris-HCl pH 8, 100 mM KCl, 200 nM ON, 0-200 nM BRD3; settings: protein: commercial; label: biotin; intramolecular parallel G4
[2] = biological target: T1, LOC153684 protein (FLJ42001 fis, clone …); experiment: as above; settings: protein: commercial; label: biotin; intramolecular parallel G4
[3] = biological target: Cyclin-dependent kinase-like 3 (human, UniProt Q8IVW4-2 1-455); experiment: as above; settings: protein: commercial; label: biotin; intramolecular parallel G4
[4] = biological target: T2, survival motor neuron domain containing …; experiment: as above; settings: protein: commercial; label: biotin; intramolecular parallel G4
[5] = biological target: T3, chromosome 1 open reading frame 63; experiment: as above; settings: protein: commercial; label: biotin; intramolecular parallel G4
[6] = biological target: T4, ankyrin repeat and zinc finger domain …; experiment: as above; settings: protein: commercial; label: biotin; intramolecular parallel G4
[7] = biological target: actin related protein 2/3 complex, subunit 1B, 41 kDa (human, UniProt O15143 1-372); experiment: as above; settings: protein: commercial; label: biotin; intramolecular parallel G4
[8] = biological target: T5, additional sex combs like 1; experiment: as above; settings: protein: commercial; label: biotin; intramolecular parallel G4
[9] = biological target: peripheral myelin protein 2 (human, UniProt P02689 1-132); experiment: as above; settings: protein: commercial; label: biotin; intramolecular parallel G4
[10] = biological target: peptidyl arginine deiminase, type IV (human, UniProt Q9UM07 1-663); experiment: protein microarray; 2.5 uM ON; 4.85 at 25 uM; Microarray: 20 mM Tris pH 7.5, 5 mM MgCl2, 100 mM KCl, 0.1% Tween-20, A/T-rich ON blocker mix; EMSA: 20 mM Tris-HCl pH 8, 100 mM KCl, 200 nM ON, 0-200 nM BRD3; settings: protein: commercial; label: biotin; intramolecular parallel G4
[11] = biological target: T6, Peptidyl-tRNA hydrolase 2, mitochondrial; experiment: as above; settings: protein: commercial; label: biotin; intramolecular parallel G4
[12] = biological target: Coiled-coil domain-containing protein 28A (human, UniProt Q8IWP9 1-274); experiment: as above; settings: protein: commercial; label: biotin; intramolecular parallel G4
[13] = biological target: T7, hypothetical protein HSPC111; experiment: as above; settings: protein: commercial; label: biotin; intramolecular parallel G4
bromodomain containing 3 [14] = biological target: T9, bromodomain containing 3 (human, UniProt Q15059-2 1-556); experiment: as above; settings: protein: commercial; label: biotin; intramolecular parallel G4
[15] = biological target: T8, GABA(A) receptor-associated protein; experiment: protein microarray; 2.5 uM ON; 6.47 at 25 uM; Microarray: 20 mM Tris pH 7.5, 5 mM MgCl2, 100 mM KCl, 0.1% Tween-20, A/T-rich ON blocker mix; EMSA: 20 mM Tris-HCl pH 8, 100 mM KCl, 200 nM ON, 0-200 nM BRD3; settings: protein: commercial; label: biotin; G4; mixed topology for unmodified strand, CD differs when biotinylated
[16] = biological target: T3, chromosome 1 open reading frame 63; experiment: as above; settings: protein: commercial; label: biotin; G4; mixed topology for unmodified strand, CD differs when biotinylated
[17] = biological target: T5, additional sex combs like 1; experiment: as above; settings: protein: commercial; label: biotin; G4; mixed topology for unmodified strand, CD differs when biotinylated
bromodomain containing 3 [18] = biological target: T9, bromodomain containing 3; experiment: as above; settings: protein: commercial; label: biotin; G4; mixed topology for unmodified strand, CD differs when biotinylated

T9 sequence (Q15059 other isoform, or with tags, fused parts or gaps): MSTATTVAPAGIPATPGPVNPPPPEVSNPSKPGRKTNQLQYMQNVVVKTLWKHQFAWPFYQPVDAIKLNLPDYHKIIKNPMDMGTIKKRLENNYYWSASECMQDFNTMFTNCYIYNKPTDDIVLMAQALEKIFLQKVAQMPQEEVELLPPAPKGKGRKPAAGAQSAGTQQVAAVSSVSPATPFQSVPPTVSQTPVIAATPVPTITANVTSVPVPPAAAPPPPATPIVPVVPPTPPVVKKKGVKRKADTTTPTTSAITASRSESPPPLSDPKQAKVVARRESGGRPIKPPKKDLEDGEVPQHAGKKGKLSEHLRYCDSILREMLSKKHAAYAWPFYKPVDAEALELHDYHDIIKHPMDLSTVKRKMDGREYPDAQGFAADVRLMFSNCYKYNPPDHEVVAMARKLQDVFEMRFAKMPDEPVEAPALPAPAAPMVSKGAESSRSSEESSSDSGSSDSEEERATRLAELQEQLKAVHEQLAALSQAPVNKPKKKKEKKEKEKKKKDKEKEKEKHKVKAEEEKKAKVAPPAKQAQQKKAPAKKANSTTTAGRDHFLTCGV
T8 sequence (O95166 whole entry): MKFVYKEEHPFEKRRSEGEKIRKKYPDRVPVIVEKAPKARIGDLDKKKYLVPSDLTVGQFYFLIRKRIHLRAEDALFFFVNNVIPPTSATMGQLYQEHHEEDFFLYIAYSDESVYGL
Sequence of Coiled-coil domain-containing protein 28A (Q8IWP9 whole entry, the tested form may be a part): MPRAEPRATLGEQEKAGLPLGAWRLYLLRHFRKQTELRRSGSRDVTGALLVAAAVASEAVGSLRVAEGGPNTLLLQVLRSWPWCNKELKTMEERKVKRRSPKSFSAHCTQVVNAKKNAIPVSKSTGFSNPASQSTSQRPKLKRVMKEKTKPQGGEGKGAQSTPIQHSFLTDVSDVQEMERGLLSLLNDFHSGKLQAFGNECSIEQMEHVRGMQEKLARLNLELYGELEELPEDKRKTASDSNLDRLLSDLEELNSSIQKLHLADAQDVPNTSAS
Sequence of peripheral myelin protein 2 (P02689 whole entry): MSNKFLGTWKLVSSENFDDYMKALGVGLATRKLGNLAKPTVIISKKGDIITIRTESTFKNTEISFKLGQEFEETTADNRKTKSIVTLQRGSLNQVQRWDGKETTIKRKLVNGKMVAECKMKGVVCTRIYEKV
Sequence of Cyclin-dependent kinase-like 3 (Q8IVW4 1-455): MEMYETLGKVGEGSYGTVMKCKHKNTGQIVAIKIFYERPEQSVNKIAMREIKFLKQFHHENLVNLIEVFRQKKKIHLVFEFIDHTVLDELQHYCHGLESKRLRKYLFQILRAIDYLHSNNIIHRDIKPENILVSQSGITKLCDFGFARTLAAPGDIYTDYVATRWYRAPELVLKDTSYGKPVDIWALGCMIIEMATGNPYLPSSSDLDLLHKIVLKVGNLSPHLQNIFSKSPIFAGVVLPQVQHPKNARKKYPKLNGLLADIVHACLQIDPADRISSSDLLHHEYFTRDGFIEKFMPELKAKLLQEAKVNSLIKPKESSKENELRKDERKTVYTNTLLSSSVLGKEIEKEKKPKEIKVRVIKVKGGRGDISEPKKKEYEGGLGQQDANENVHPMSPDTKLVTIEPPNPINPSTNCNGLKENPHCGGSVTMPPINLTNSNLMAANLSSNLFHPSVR
Sequence of peptidyl arginine deiminase, type IV (Q9UM07 whole entry): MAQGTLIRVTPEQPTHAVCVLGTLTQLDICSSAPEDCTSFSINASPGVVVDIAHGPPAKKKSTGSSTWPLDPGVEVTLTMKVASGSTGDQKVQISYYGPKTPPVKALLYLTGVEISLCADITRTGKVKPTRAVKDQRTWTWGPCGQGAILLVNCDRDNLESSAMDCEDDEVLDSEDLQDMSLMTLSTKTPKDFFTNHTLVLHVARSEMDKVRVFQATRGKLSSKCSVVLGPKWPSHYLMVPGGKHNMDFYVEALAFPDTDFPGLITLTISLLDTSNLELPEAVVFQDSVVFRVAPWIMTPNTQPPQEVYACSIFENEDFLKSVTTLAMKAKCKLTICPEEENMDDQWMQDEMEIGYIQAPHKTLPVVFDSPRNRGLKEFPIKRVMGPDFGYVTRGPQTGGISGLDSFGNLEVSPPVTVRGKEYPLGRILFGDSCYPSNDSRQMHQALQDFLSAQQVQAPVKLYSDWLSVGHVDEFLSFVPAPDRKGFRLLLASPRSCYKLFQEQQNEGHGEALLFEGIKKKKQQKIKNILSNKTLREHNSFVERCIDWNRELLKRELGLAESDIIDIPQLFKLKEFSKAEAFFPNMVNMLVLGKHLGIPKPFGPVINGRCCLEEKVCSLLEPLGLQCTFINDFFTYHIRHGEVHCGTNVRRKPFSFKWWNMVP

Binder | binding signal [1] [Z-score] | binding signal [2] [Z-score] | binding signal [3] [Z-score] | binding signal [4] [Z-score] | binding signal [5] [Z-score] | binding signal [6] [Z-score] | binding signal [7] [Z-score] | binding signal [8] [Z-score] | binding signal [9] [Z-score] | binding signal [10] [Z-score] | binding signal [11] [Z-score] | binding signal [12] [Z-score] | binding signal [13] [Z-score] | binding signal (bromodomain containing 3 [14]) [Z-score] | binding signal [15] [Z-score] | binding signal [16] [Z-score] | binding signal [17] [Z-score] | binding signal (bromodomain containing 3 [18]) [Z-score]
GGTGACAGGGGTATGGGGAGGGG (structured_DNA, 3'-biotin) [G4-2 biotinylated (Ct1)] | 6.62 | 6.45 | 6.29 | 6.4 | 6.17 | 6.68 | 6.19 | 6.79 | 6.73 | 6.78 | 3.46 | 6.78 | 6.78 | 6.79 |  |  |  | 
GGGGACAGGGGTATGGGGAGGGG (structured_DNA, 3'-biotin) [G4-3 biotinylated (CtG)] |  |  |  |  |  |  |  |  |  |  |  |  |  |  | 7.02 | 5.93 | 9.22 | 4.51
